Measurements as given in patent US20030208060A1 (published 2003).

B1: human receptor-associated protein (RAP) (other, UniProt P30533 35-357, looked up)
chain: YSREKNQPKPSPKRESGEEFRMEKLNQLWEKAQRLHLPPVRLAELHADLKIQERDELAWKKLKLDGLDEDGEKEARLIRNLNVILAKYGLDGKKDARQVTSNSLSGTQEDGLDDPRLEKLWHKAKTSGKFSGEELDKLWREFLHHKEKVHEYNVLLETLSRTEEIHENVISPSDLSDIKGSVLHSRHTELKEKLRSINQGLDRLRRVSHQGYSTEAEFEEPRVIDLWDLAQSANLTDKELEAFREELKHFEAKIEKHNHYQKQLEIAHEKLRHAESVGDGERVSRSREKHALLEGRTKELGYTVKKHLQDLSGRISRARHNEL
B2: GST fusion protein containing apoB48R amino acid 629-1088 (other)
chain: QEDAADGEQREEEETAGGQTLAAEAEGDRESELSEVPEAGGEGLTTQDAGCGTEEGEASVSENQELDGSTGADAGPCPSLGEAYARETEDEEAEADRTSRRGWRLQAVAVGLPDREDAQTGSVAAGIMGGDVVPHISAAGAGEALEGALGQGWDSKEKEEAAAGEHAGGQEFGLEGSAEEEVTGRGSQVEAFESREGGPWGGRVEAEESAGAEDSCGLDPAGSQTARAEGMGAMVEAGGLLEKWTLLEEEAVGWQEREQREDSEGRCGDYHPEGEAPRLLDAEGLMVTGGRRAEAKETEPESLEHVRGQEEQPTHQAPAEAAPESVGEAETAEAMGSARGGAANSWSEAPLPGSLLDVSVPRSRVHLSRSSSQRRSRPSFRRTPAWEQQEEPPAPNPPEEELSAPEQRPLQLEEPLEPSPLRHDGTPVPARRRPLGHGFGLAHPGMMQELQARLGRPKPQ
notes: not shown: glutathione-S-transferase of the pGEX-5X-3 vector (Pharmacia)
B3: glutathione-S-transferase (GST)-fusion protein containing apoB48R amino acid 223 to 710 (other)
chain: EMEQGVREADAGETEEPGAEGAGKGEEVVVVEKACESTRAWGTWGPGAEPEDWGILGREEARTTPGREEARAILDGEEARTISGGEEAETASGGEEAETASGGEEAGTASGGEEAGISSGGEAGTASGGEEAGTASGGDEAWTTSGKEEADLLGVRQTQYGAVPGERLLEATGKVWVLEEEGDEEREAEVSPFPKQAQVLGTERTEEAAESQTAGREAVGGQEAGESFEGQVDLRGKEAEMRQDLGIRADRAKMEELVQAEEAQEERGSSRDPVAELPSDGEAEGTADLEATPEARPEEELTGEESEAAQTSCGLLGVEWGGLTHSVTKGQGPELMGGAQTPTKQPEEREAGEVELMGVLALSKEEQERSLEAGPRHAGSVKPEASEAFPGAWENRTRKDMERGNTQEDAADGEQREEEETAGGQTLAAEAEGDRESELSEVPEAGGEGLTTQDAGCGTEEGEASVSENQELDGSTGADAGPCPSLGE
notes: Migrates as a dimer on SDS-PAGE; also called apoB48R-GST fusion protein (aa 223-710); not shown: glutathione-S-transferase of the pGEX-5X-3 vector (Pharmacia)
B4: GST fusion protein containing apoB48R amino acid 714-917 (other)
chain: RETEDEEAEADRTSRRGWRLQAVAVGLPDREDAQTGSVAAGIMGGDVVPHISAAGAGEALEGALGQGWDSKEKEEAAAGEHAGGQEFGLEGSAEEEVTGRGSQVEAFESREGGPWGGRVEAEESAGAEDSCGLDPAGSQTARAEGMGAMVEAGGLLEKWTLLEEEAVGWQEREQREDSEGRCGDYHPEGEAPRLLDAEGLMVTG
notes: as for B2
B5: MBP200 (membrane binding protein of ~200 kDa; human monocyte-macrophage apoB48 receptor, apoB48R) (receptor)
chain: MDFLRLYLPGLHQALRGALDSLGTFVSYLLGDAVPTVEREAQAAEELGVVAVGKTGKIVEEEAQEDLEGLRGSQNEGAGRLRGPGDDRRHEVGSSAVEQTWGWGDGSSHGSQAERQDSGAGETAKAARCQEPSAHLEARKKSKAGSGACQDRSGQAQERQESHEQEVNREERLRSWEQEEEEEEVRAREPGMARGAESEWTWHGETEGKAGAVGPKAAGDNREMEQGVREADAGETEEPGAEGAGKGEEVVVVEKACESTRAWGTWGPGAEPEDWGILGREEARTTPGREEARAILDGEEARTISGGEEAETASGGEEAETASGGEEAGTASGGEEAGISSGGEAGTASGGEEAGTASGGDEAWTTSGKEEADLLGVRQTQYGAVPGERLLEATGKVWVLEEEGDEEREAEVSPFPKQAQVLGTERTEEAAESQTAGREAVGGQEAGESFEGQVDLRGKEAEMRQDLGIRADRAKMEELVQAEEAQEERGSSRDPVAELPSDGEAEGTADLEATPEARPEEELTGEESEAAQTSCGLLGVEWGGLTHSVTKGQGPELMGGAQTPTKQPEEREAGEVELMGVLALSKEEQERSLEAGPRHAGSVKPEASEAFPGAWENRTRKDMERGNTQEDAADGEQREEEETAGGQTLAAEAEGDRESELSEVPEAGGEGLTTQDAGCGTEEGEASVSENQELDGSTGADAGPCPSLGEAYARETEDEEAEADRTSRRGWRLQAVAVGLPDREDAQTGSVAAGIMGGDVVPHISAAGAGEALEGALGQGWDSKEKEEAAAGEHAGGQEFGLEGSAEEEVTGRGSQVEAFESREGGPWGGRVEAEESAGAEDSCGLDPAGSQTARAEGMGAMVEAGGLLEKWTLLEEEAVGWQEREQREDSEGRCGDYHPEGEAPRLLDAEGLMVTGGRRAEAKETEPESLEHVRGQEEQPTHQAPAEAAPESVGEAETAEAMGSARGGAANSWSEAPLPGSLLDVSVPRSRVHLSRSSSQRRSRPSFRRTPAWEQQEEPPAPNPPEEELSAPEQRPLQLEEPLEPSPLRHDGTPVPARRRPLGHGFGLAHPGMMQELQARLGRPKPQ
notes: Native protein in Triton X-114 aqueous-phase extracts of THP-1 monocytes, run on non-reducing SDS-PAGE and blotted to nitrocellulose; Apparent Mr ~200 kD against ~114.8 kD deduced; also called TGRLP receptor; TGRLP/ApoB receptor

Assays:
[1] = target: B5; assay: ligand blot
Method: The ligand blotting assay was performed essentially as described (Gianturco et al., 1988, 1994; Ramprasad et al., 1995) with minor modifications. Aliquots of the detergent extracts were electrophoresed on 5% polyacrylamide gels containing 0.1% SDS (Laemmli, 1970) under non-reducing conditions in a Bio-Rad minigel apparatus and electrotransferred to nitrocellulose. After blocking for 1 hour with 5% Carnation nonfat dry milk in ligand buffer (50 mM Tris-HCl (pH 8), 90 mM NaCl and 2 mM CaCl₂), the blots were rinsed with 0.5% milk in ligand buffer before incubation with lipoproteins in ligand buffer containing 0.05% milk (Gianturco et al., 1988).
For competitive ligand blots, TGRLP were biotinylated as described (O'Shannessy et al., 1984) and dialyzed extensively before use. […] After extensive washing, bound lipoprotein was detected by incubation with streptavidin linked to alkaline phosphatase, followed by substrates BCIP and NBT (Bio-Rad Laboratories, CA). In some experiments without antibodies as potential competitors, native, unlabeled TGRLP were used as the ligand, and bound TGRLP was detected with anti-apoB followed by alkaline phosphatase-linked secondary antibody. […]

[2] = target: the molecule itself; assay: SDS-PAGE of the purified GST fusion protein
[3] = target: the molecule itself; assay: SDS-PAGE of the purified fusion protein
[4] = target: T1, normal VLDL Sf100-400 from a subject with normal plasma TG levels (human, UniProt P04114 28-4563); assay: ligand blot; the binding is of lower affinity
T1 construct: Lipoprotein particle; also called N-V1; normal very low density lipoprotein

[5] = target: T2, intermediate density lipoprotein (human, UniProt P04114 28-4563); assay: ligand blot; the binding is of lower affinity
T2 construct: Lipoprotein particle; also called IDL

[6] = target: T3, low density lipoprotein (LDL) (human, UniProt P04114 28-4563); assay: ligand blot; lower affinity than HTG TGRLP and chylomicrons
T3 construct: Lipoprotein particle
T3 sequence (P04114 28-4563 limits assumed): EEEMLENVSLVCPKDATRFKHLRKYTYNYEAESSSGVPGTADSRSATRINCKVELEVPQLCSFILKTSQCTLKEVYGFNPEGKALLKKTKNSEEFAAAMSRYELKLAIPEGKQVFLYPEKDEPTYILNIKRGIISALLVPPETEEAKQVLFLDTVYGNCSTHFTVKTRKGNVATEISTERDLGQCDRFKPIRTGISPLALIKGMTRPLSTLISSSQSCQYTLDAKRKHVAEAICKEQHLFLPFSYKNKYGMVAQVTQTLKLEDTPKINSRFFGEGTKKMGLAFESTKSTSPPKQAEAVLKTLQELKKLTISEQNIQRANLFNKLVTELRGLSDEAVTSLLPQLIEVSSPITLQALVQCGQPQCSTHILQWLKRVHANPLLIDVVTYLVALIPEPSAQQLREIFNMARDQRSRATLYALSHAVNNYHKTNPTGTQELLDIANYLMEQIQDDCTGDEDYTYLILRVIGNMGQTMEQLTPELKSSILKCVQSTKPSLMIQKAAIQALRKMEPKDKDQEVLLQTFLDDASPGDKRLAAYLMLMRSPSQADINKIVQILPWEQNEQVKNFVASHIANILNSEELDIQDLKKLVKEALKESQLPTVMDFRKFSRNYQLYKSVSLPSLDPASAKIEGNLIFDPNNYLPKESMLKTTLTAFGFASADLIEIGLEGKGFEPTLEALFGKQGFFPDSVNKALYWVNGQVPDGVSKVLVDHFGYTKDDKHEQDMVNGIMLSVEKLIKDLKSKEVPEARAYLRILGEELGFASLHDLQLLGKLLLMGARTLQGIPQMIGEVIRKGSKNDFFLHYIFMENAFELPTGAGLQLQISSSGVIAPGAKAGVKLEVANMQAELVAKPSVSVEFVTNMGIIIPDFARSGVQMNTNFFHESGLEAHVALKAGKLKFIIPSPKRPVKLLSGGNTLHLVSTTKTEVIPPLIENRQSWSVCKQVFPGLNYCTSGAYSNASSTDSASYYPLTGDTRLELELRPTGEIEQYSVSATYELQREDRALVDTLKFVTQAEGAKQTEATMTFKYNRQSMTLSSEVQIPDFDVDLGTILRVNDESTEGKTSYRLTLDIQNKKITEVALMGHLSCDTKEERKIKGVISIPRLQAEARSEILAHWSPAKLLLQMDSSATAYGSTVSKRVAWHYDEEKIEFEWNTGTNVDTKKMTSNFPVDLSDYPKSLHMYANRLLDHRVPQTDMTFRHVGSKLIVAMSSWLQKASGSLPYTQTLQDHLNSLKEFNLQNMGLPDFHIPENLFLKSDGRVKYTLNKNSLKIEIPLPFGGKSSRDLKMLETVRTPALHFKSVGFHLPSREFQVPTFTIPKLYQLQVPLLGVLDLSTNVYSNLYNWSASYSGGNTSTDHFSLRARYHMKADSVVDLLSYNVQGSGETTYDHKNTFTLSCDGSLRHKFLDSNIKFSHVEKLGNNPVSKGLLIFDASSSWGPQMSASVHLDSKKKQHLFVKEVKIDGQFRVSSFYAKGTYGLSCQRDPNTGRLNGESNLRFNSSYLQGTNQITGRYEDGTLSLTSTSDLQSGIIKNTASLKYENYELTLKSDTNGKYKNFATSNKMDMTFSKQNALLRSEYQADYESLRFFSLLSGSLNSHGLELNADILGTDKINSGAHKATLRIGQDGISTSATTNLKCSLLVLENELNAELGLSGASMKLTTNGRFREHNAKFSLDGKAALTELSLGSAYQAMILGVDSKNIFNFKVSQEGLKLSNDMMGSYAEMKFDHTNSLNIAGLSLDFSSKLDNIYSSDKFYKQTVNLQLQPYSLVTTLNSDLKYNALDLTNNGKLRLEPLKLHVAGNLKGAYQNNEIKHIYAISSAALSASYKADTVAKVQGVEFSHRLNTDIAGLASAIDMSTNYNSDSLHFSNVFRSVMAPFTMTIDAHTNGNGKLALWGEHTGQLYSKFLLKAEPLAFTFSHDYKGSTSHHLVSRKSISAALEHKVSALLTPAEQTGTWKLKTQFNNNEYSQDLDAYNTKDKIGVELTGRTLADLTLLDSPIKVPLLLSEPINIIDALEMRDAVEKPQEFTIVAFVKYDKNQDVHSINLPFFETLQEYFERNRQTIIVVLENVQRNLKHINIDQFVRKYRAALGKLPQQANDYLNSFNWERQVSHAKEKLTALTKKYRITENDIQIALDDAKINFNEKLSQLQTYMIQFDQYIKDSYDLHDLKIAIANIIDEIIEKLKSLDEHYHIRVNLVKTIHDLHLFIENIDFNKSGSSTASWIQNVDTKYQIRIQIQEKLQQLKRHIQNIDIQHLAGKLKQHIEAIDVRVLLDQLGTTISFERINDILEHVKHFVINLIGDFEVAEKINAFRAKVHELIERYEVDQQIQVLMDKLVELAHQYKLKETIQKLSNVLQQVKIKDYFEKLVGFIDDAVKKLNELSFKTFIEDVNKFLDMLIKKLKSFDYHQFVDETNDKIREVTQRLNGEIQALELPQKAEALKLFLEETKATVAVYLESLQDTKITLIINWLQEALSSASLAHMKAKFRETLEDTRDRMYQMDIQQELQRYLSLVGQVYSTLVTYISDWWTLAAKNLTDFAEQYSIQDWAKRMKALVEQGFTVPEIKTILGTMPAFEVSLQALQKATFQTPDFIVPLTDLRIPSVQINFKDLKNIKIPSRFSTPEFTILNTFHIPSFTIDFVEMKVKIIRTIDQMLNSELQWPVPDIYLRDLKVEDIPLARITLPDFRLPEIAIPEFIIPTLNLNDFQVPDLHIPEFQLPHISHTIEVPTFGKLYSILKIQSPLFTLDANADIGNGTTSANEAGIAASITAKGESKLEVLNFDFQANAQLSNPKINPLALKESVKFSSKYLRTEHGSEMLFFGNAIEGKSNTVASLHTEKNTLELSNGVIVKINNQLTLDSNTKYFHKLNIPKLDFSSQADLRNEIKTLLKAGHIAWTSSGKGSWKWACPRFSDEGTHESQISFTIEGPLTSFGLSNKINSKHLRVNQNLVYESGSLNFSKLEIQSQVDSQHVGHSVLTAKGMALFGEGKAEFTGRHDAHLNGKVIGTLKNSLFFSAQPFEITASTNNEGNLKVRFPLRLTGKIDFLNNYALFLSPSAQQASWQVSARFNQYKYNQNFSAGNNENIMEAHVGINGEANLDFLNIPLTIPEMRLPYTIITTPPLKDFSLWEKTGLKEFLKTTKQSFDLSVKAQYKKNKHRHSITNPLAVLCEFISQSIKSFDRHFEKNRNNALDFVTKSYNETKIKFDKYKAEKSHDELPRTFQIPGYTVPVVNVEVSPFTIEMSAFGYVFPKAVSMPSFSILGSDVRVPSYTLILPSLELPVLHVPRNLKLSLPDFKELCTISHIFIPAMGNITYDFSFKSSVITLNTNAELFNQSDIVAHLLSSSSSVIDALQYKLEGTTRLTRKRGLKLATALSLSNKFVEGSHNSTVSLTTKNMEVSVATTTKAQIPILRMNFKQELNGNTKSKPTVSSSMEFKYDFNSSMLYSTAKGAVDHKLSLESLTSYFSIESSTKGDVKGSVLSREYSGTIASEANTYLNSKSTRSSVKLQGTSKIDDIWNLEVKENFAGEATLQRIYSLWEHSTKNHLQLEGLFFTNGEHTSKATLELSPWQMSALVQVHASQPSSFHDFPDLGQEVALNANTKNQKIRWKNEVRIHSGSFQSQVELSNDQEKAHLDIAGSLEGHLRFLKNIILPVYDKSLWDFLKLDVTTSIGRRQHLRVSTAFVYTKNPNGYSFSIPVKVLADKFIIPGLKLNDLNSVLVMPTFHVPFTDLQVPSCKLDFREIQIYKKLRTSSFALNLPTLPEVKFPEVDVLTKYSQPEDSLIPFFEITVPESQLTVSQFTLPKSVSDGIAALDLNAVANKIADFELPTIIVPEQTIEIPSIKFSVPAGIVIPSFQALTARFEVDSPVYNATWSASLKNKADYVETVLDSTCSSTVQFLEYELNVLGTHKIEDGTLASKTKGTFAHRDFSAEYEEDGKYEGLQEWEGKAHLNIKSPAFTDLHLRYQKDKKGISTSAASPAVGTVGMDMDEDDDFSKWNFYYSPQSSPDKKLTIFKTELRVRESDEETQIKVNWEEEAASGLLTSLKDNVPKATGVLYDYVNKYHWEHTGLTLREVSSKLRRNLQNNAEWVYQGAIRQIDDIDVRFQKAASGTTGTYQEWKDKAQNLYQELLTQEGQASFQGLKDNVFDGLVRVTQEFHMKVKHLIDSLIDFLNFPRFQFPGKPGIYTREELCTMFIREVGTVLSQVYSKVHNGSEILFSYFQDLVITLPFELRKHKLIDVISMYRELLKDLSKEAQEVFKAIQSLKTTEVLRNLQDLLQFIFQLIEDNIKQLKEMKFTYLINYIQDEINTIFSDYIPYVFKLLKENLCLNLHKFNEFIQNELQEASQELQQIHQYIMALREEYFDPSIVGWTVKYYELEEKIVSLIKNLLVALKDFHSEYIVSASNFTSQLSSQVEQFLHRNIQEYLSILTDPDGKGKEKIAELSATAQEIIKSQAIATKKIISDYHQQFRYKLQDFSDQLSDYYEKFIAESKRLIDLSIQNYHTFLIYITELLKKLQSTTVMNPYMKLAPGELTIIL

T2 sequence (P04114 28-4563 limits assumed): as above
T1 sequence (P04114 28-4563 limits assumed): as above

Binder: B1
- binding result [1]: no binding

Binder: B2
- binding result [2]: no binding

Binder: B3
- binding result [3]: binds

Binder: B4
- binding result [2]: no binding

Binder: B5
- binding result [4]: binds
- binding result [5]: binds
- binding result [6]: binds
